The values below are quoted from earlier work in publication PMC6023760.

The target in this data set is Thrombin exosite 2 (Homo sapiens) (UniProt P00734).

By Kd is commonly meant the equilibrium constant for the complex coming apart. Turning to “Fibrin γ′-chain γ′ site (from UniProt P02679)”, the Kd was 200 nM.
